The subject of series [1] is substrate DNA (template-primer). The experiment in a line: DNA polymerase activity on different forms of substrate DNA (template-primer). It is filed as biochemical. As to the method: The DNA polymerase activity was assayed using calf thymus DNA (manufactured by Worthington) activated by DNase I treatment (activated DNA) as a substrate. DNA activation and assay of DNA polymerase activity were carried out by the method described in DNA Polymerase from Escherichia coli, 263-276 (authored by C. C. Richardson), published by Harper & Row, edited by D. R. Davis.
An assay of enzyme activity was carried out by the following method. Specifically, 50 μl of a reaction solution [20 mM Tris-HCl (pH 7.7), 15 mM MgCl2, 2 mM 2-mercaptoethanol, 0.2 mg/ml activated DNA, 40 μM each of dATP, dCTP, dGTP and dTTP, 60 nM [^3H]-dTTP (manufactured by Amersham)], containing a sample for assaying its activity, was prepared and reacted at 75° C. for 15 minutes. A 40 μl portion of this reaction mixture was then spotted onto a DE paper (manufactured by Whatman) and washed with 5% Na2HPO4 five times. The remaining radioactivity on the DE paper was assayed using a liquid scintillation counter. The amount of enzyme which incorporated 10 nmol of [^3H]-dTMP per 30 minutes into the substrate DNA, assayed by the above-described enzyme activity assay method, was defined as one unit of the enzyme.
Next, in order to compare the selectivity of the DNA polymerase of the present invention for different forms of substrate DNA, the following template-primer was examined. Aside from the activated DNA used for conventional assay of the activity, those prepared as substrates include a thermal-denatured DNA prepared by treating the activated DNA at 85° C. for 5 minutes; M13-HT Primer prepared by annealing a 45-base synthetic deoxyribooligonucleotide of the sequence as shown by SEQ ID NO:6 in Sequence Listing as a primer to the M13 phage single stranded DNA (M13mp18 ssDNA, manufactured by Takara Shuzo Co., Ltd.); M13-RNA Primer prepared by annealing a 17-base synthetic ribooligonucleotide of the sequence as shown by SEQ ID NO:7 in Sequence Listing as a primer to the same M13 phage single stranded DNA; Poly dA-Oligo dT prepared by mixing polydeoxyadenosine (Poly dA, manufactured by Pharmacia) and oligodeoxythymidine (Oligo dT, manufactured by Pharmacia) in a 20:1 molar ratio; and Poly A-Oligo dT prepared by mixing polyadenosine (Poly A, manufactured by Pharmacia) and oligodeoxythymidine in a 20:1 molar ratio.
The DNA polymerase activity was assayed using these substrates in place of the activated DNA. The relative activity of each substrate when the activity obtained in the case of using an activated DNA as a substrate is defined as 100 is shown in Table 1. For comparison, the Pfu DNA polymerase and the Taq DNA polymerase derived from Thermus aquaticus (TaKaRa Taq, manufactured by Takara Shuzo Co., Ltd.) were also examined in the same manner.

A further series relates to M13-HT Primer. The experiment in a line: Primer extension reaction (autoradiogram, FIG. 6). The class given is biochemical. As to conditions: activated DNA added in great excess. As to the method: The primer extension activity was further investigated extensively. The M13-HT Primer, previously labeled with [γ-^32P]-ATP (manufactured by Amersham) and T4 polynucleotide kinase (manufactured by Takara Shuzo Co., Ltd.) at the 5′-end, was used as a substrate. Ten microliters of a reaction mixture [20 mM Tris-HCl (pH 7.7), 15 mM MgCl2, 2 mM 2-mercaptoethanol, 270 μM each of dATP, dGTP, dCTP and dTTP] containing the above substrate in a final concentration of […] and various DNA polymerases in amounts providing 0.05 units of activity as assayed with the activated DNA as a substrate was reacted at 75° C. for 1, 2, 3, or 4 minutes. After termination of the reaction, 2 μl of a reaction stop solution (95% […], 20 mM EDTA, 0.05% bromophenol blue, 0.05% xylenecyanol) was added, subjected to thermal denaturation treatment at 95° C. for 3 minutes. Two microliters of the reaction mixture was then subjected to electrophoresis using polyacrylamide gel containing 8 M urea and subsequently subjected to a preparation of autoradiogram. Also, in order to examine the extension activity in the presence of the activated DNA as a competitor substrate, the activated DNA was added to the above reaction mixture to a final concentration of […], and subjected to a preparation of an autoradiogram by the same procedures as described above.
In the figure, Pol, Pfu, and Taq show the results for the DNA polymerase of the present invention, the Pfu DNA polymerase and the Taq DNA polymerase, respectively. In addition, 1, 2, 3, and 4 each indicates reaction time (min). In the figure, the representation “−” and “+” show the results obtained in the absence and in the presence, respectively, of the activated DNA. The lanes G, A, T, and C at the left end of the figure also show the results of electrophoresis of the reaction products obtained by a chain termination reaction by the dideoxy method using the same substrate as above, which were used to estimate the length of each extension product.

The subject of a further series is λ-DNA. As to conditions: reported, enzyme used alone; cited from earlier work.

B1: Pfu DNA Polymerase: α-type DNA polymerase derived from Pyrococcus furiousus, manufactured by Stratagene (protein, UniProt P61875 1-775, looked up)
DNA polymerase: MILDVDYITEEGKPVIRLFKKENGKFKIEHDRTFRPYIYALLRDDSKIEEVKKITGERHGKIVRIVDVEKVEKKFLGKPITVWKLYLEHPQDVPTIREKVREHPAVVDIFEYDIPFAKRYLIDKGLIPMEGEEELKILAFDIETLYHEGEEFGKGPIIMISYADENEAKVITWKNIDLPYVEVVSSEREMIKRFLRIIREKDPDIIVTYNGDSFDFPYLAKRAEKLGIKLTIGRDGSEPKMQRIGDMTAVEVKGRIHFDLYHVITRTINLPTYTLEAVYEAIFGKPKEKVYADEIAKAWESGENLERVAKYSMEDAKATYELGKEFLPMEIQLSRLVGQPLWDVSRSSTGNLVEWFLLRKAYERNEVAPNKPSEEEYQRRLRESYTGGFVKEPEKGLWENIVYLDFRALYPSIIITHNVSPDTLNLEGCKNYDIAPQVGHKFCKDIPGFIPSLLGHLLEERQKIKTKMKETQDPIEKILLDYRQKAIKLLANSFYGYYGYAKARWYCKECAESVTAWGRKYIELVWKELEEKFGFKVLYIDTDGLYATIPGGESEEIKKKALEFVKYINSKLPGLLELEYEGFYKRGFFVTKKRYAVIDEEGKVITRGLEIVRRDWSEIAKETQARVLETILKHGDVEEAVRIVKEVIQKLANYEIPPEKLAIYEQITRPLHEYKAIGPHVAVAKKLAAKGVKIKPGMVIGYIVLRGDGPISNRAILAEEYDPKKHKYDAEYYIENQVLPAVLRILEGFGYRKEDLRYQKTRQVGLTSWLNIKKS
On to B1, for which the “Relative Activity” value in series [1] (substrate M13-HT primer, activated DNA = 100) amounted to 23; in series [1] (substrate M13-RNA primer, activated DNA = 100), 0.49; in series [1] (substrate activated DNA (defined as 100)) it was 100; in series [1] (substrate poly dA-Oligo dT, activated DNA = 100) it was 390; in series [1] (substrate thermal-denatured DNA, activated DNA = 100), 87. For the same molecule, in the series with M13-HT Primer, the “inhibition of primer extension by activated DNA as competitor substrate” value is recorded as “strongly inhibited”. The “strand length of DNA amplifiable by PCR” value in the series on λ-DNA is recorded as “at most 3 kbp”.

Source of the values: US6395526B1, “DNA polymerase” (Takara Shuzo Co., Ltd., priority 1995, dated 2002).
